In the supplement of paper PMC7877785:
± gives the uncertainty stated by the source.

Assay: self-splicing fitness, log relative to wild type (ln ratio); higher = more splicing; Tetrahymena group I intron in knt gene, E. coli kanamycin selection, DiMSum; sequences stand for … in CUCUCU…GGAGGGAAAAGUUAUCAGGCAUGCACCUGGUAGCUAGUCUUUAAACCAAUAGAUUGCAUCGGUUUAAAAGGCAAGACCGUCAAAUUGCGGGAAAGGGGUCAACAGCCGUUCAGUACCAAGUCUCAGGGGAAACUUUGAGAUGGCCUUGCAAAGGGUAUGGUAAUAAGCUGACGGACAUGGUCCUAACCACGCAGCCAAGUCCUAAGUCAACAGAUCUUCUGUUGAUAUGGAUGCAGUUCACAGACUAAAUGUCGGUCGGGGAAGAUGUAUUCUUCUCAUAAGAUAUAGUCGGACCUCUCCUUAAUGGGAGCUAGCGGAUGAAGUGAUGCAACACUGGAGCCGCUGGGAACUAAUUUGUAUGCGAAAGUAUAUUGAUUAGUUUUGGAGUACUCGUGGUCG
Outline: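 The eight P1ex-region nucleotides of an intron in the knt kanamycin-resistance gene on pET-22b(+) were all randomised and the library put into E. coli BL21(DE3). Six replicate transformations were grown overnight at 37°C or 30°C on LB agar with or without 25 μg/mL kanamycin, together with 100 μg/mL carbenicillin, 50 μM IPTG and 0.2% rhamnose. Colonies were pooled and amplicon-sequenced on an Illumina HiSeq 2500. Fitness from DiMSum is the error-weighted combination of wild-type-normalised replicate fold changes, kanamycin over none.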

Sequence	self-splicing fitness (ln) (30 °C)	self-splicing fitness (ln) (37 °C)
CGCAAGCAAUAUUACGACCU	-0.793 ± 0.092	-0.711 ± 0.12
CGCAAGCAAUAUUACGACGG	0.00768 ± 0.061	0.452 ± 0.08
CGCAAGCAAUAUUACGAGCU	-0.541 ± 0.063	-0.633 ± 0.078
CGCAAGCAAUAUUACGAGUG	-1.99 ± 0.057	-1.72 ± 0.084
CGCAAGCAAUAUUACGAGUU	-3.26 ± 0.13	-1.45 ± 0.1
CGCAAGCAAUAUUACGAUUC	-3.18 ± 0.18	-2.17 ± 0.15
CGCAAGCAAUAUUACGCAGA	-2.26 ± 0.15	-1.78 ± 0.16
CGCAAGCAAUAUUACGCAGG	-2.74 ± 0.12	-1.01 ± 0.12
CGCAAGCAAUAUUACGCCGA	-2.85 ± 0.26	-2 ± 0.18
CGCAAGCAAUAUUACGCCGG	-0.626 ± 0.12	-0.476 ± 0.17
CGCAAGCAAUAUUACGCGCG	-3.11 ± 0.12	-2.51 ± 0.16
CGCAAGCAAUAUUACGGACC	-1.72 ± 0.1	-0.3 ± 0.14
CGCAAGCAAUAUUACGGCUC	-1.94 ± 0.14	-1.43 ± 0.15
CGCAAGCAAUAUUACGGUUC	-4.01 ± 0.23	-2.6 ± 0.16
CGCAAGCAAUAUUACGGUUU	-2.95 ± 0.17	-2.53 ± 0.18
CGCAAGCAAUAUUACGUCGG	-0.371 ± 0.061	-0.192 ± 0.089
CGCAAGCAAUAUUACGUGCC	-0.772 ± 0.073	-1.13 ± 0.11
CGCAAGCAAUAUUACGUUAU	-3.78 ± 0.24	-2.44 ± 0.14
CGCAAGCAAUAUUACGUUCC	-2.95 ± 0.15	-1.06 ± 0.12
CGCAAGCAAUAUUACGUUUU	-4.46 ± 0.15	-2.83 ± 0.16
CGCCAGCAAUAUUACGAAUC	-2.75 ± 0.16	-2.92 ± 0.26
CGCCAGCAAUAUUACGACAU	-3.741 ± 0.023	-2.75 ± 0.038
CGCCAGCAAUAUUACGACGA	-2.77 ± 0.15	-1.48 ± 0.14
CGCCAGCAAUAUUACGACUU	-3.35 ± 0.2	-1.82 ± 0.18

Sequence	self-splicing fitness (ln) (30 °C)	self-splicing fitness (ln) (37 °C)
CGCCAGCAAUAUUACGAGAC	-3.23 ± 0.33	-3.54 ± 0.46
CGCCAGCAAUAUUACGAGAG	-3.58 ± 0.13	-1.37 ± 0.098
CGCCAGCAAUAUUACGAGCG	-2.66 ± 0.17	-2.56 ± 0.23
CGCCAGCAAUAUUACGAGUU	-3.19 ± 0.15	-3.16 ± 0.2
CGCCAGCAAUAUUACGAUCC	-3.12 ± 0.37	–
CGCCAGCAAUAUUACGAUCU	-2.5 ± 0.26	-2.42 ± 0.35
CGCCAGCAAUAUUACGCCAG	-0.963 ± 0.12	-0.172 ± 0.15
CGCCAGCAAUAUUACGCUAU	-3.43 ± 0.15	-3.01 ± 0.21
CGCCAGCAAUAUUACGGCAA	-0.604 ± 0.087	-0.186 ± 0.088
CGCCAGCAAUAUUACGGCAC	-2.37 ± 0.1	-1.04 ± 0.097
CGCCAGCAAUAUUACGGGGU	-3.35 ± 0.15	-2.36 ± 0.17
CGCCAGCAAUAUUACGGUAA	-0.8 ± 0.069	0.0236 ± 0.072
CGCCAGCAAUAUUACGGUAU	-2.65 ± 0.088	-0.699 ± 0.1
CGCCAGCAAUAUUACGUAGA	-1.25 ± 0.086	-1.18 ± 0.13
CGCCAGCAAUAUUACGUCAA	-2.51 ± 0.17	-2.32 ± 0.17
CGCCAGCAAUAUUACGUCAU	-4.39 ± 0.19	-3.12 ± 0.18
CGCCAGCAAUAUUACGUCUC	-4.51 ± 0.23	-2.45 ± 0.16
CGCCAGCAAUAUUACGUGAC	-3.64 ± 0.32	-2.96 ± 0.33
CGCCAGCAAUAUUACGUGCC	-1.13 ± 0.091	-0.673 ± 0.11
CGCGAGCAAUAUUACGACCU	-0.582 ± 0.16	-1.81 ± 0.21
CGCGAGCAAUAUUACGAUCU	-3.42 ± 0.21	-1.66 ± 0.14
CGCGAGCAAUAUUACGCCAG	-2.74 ± 0.18	-2.75 ± 0.24
CGCGAGCAAUAUUACGCCCU	-3.1 ± 0.29	-2.5 ± 0.39
